Test results published in patent US20240165165A1, “PHARMACEUTICAL COMPOSITIONS AND THEIR METHODS OF USE” (The Trustees of Indiana University, priority 2021, published 2024).

How the values were obtained:
Type in all cases: cell-based, mouse
EO771 cells = assay: Western blot of proteins in treated tumor cells
Experimental: (§1) Western blot analysis and mass spectrometry. Western blot analysis was conducted using known procedures. Antibodies were used against ANXA1, β-catenin, caspase 3, Lrp5, Lrp6, Runx2, Sclerostin, Snail, TGFβ, NFATc1, cathepsin K (Cell Signaling, Danvers, MA, USA), DMP1, ANXA6, CXCL5 (Abcam, Cambridge, MA, USA), M-CSF, MMP9, OPN, TPM4 (Santa Cruz, Dallas, TX, USA), WISP1 (R&D systems, Minneapolis, MN, USA), β-actin (Sigma, Saint Louis, MO, USA), LIMA1, Trail (Novus, Centennial, CO, USA), p53 and CXCL1 (Invitrogen, Carlsbad, California, USA), and DSP (ProteinTech, Rosemont, IL, USA). The expression levels of Sclerostin and Lrp5 in CM were detected by ELISA (My BioSource, San Diego, CA, USA). Proteins from A5 osteocyte CM, Y4 osteocyte CM, and osteoclast control CM (RAW264.7 cells) were analyzed by the HF Hybrid Quadrupole Orbitrap mass spectrometry. Among 549 identified proteins, 49 proteins presented higher expression levels in A5 CM than Y4 CM and control CM. Among them, 11 proteins (p53; SPARC=osteonectin; TPM1, TPM4=tropomyosin 1 & 4; ANXA1, ANXA6=annexin A1 & A6; FMOD=fibromodulin; OGN=osteoglycin; DSP=desmoplakin; AHNAK=desmoyokin; and LIMA1=LEVI domain actin-binding protein 1) were identified as potential tumor suppressors.
(§2) Western blot analysis and protein array analysis. Western blot analysis was conducted using the procedure previously described. Antibodies against Lrp5, Runx2, Snail, TGFβ, sclerostin, Calr, p-eIF2α, eIF2α (Cell Signaling, Danvers, MA, USA), LIF, Trail (Novus Biologicals, Centennial, CO, USA), MMP9, NFATc1, cathepsin K (Santa Cruz Biotechnology, Dallas, TX, USA), p53, CXCL2, Ppib (Invitrogen, Carlsbad, CA, USA), Hsp90ab1 (Abcam, Cambridge, UK), and β-actin (Sigma, Saint Louis, MO, USA) were used. A proteome profiler mouse XL cytokine array kit (R&D Systems, Minneapolis, MN, USA) was also employed, and the expression of 111 cytokines and chemokines in MSC-derived CM was determined.
Spheroid assay, plasmid transfection, and Western blot analysis. […]

[1] = system: RANKL-stimulated RAW264.7 pre-osteoclasts; assay: Western blot of NFATc1 and cathepsin K
Experimental: as §1, with “Among them, 11 proteins (p53; SPARC=osteonectin; TPM1, TPM4=tropomyosin 1 & 4; ANXA1, ANXA6=annexin A1 & A6; FMOD=fibromodulin; OGN=osteoglycin; DSP=desmoplakin; AHNAK=desmoyokin; and LIMA1=LEVI domain actin-binding protein 1) were identified as potential tumor suppressors.” left out
Western blot analysis and protein array analysis. […] A proteome profiler mouse XL cytokine array kit (R&D Systems, Minneapolis, MN, USA) was also employed, and the expression of 111 cytokines and chemokines in MSC-derived CM was determined.
Western blot analysis. […] The protein concentration was determined using a BCA Protein Assay kit (Thermo-Fisher). […]

TRAMP cells = assay: Western blot of proteins in treated tumor cells
Experimental: as §2
Western blot analysis. Cultured cells were lysed in a radio-immunoprecipitation assay buffer with protease inhibitors (Santa Cruz Biotechnology, Santa Cruz, CA, USA) and phosphatase inhibitors (Calbiochem, Billerica, MA, USA). The protein concentration was determined using a BCA Protein Assay kit (Thermo-Fisher). Proteins were fractionated by 10-15% SDS gels and electro-transferred to polyvinylidene difluoride transfer membranes (Millipore, Billerica, MA, USA). […] The level of proteins was determined using a SUPERSIGNAL™ west femto maximum sensitivity substrate (Thermo Scientific, Waltham, MA, USA), and a luminescent image analyzer (LAS-3000, Fuji Film, Tokyo, Japan) was used to quantify signal intensities. […]

B1: Trail: recombinant TRAIL proteins, apoptosis-inducing factor (protein, UniProt P50592 1-291, looked up)
Tumor necrosis factor ligand …: MPSSGALKDLSFSQHFRMMVICIVLLQVLLQAVSVAVTYMYFTNEMKQLQDNYSKIGLACFSKTDEDFWDSTDGEILNRPCLQVKRQLYQLIEEVTLRTFQDTISTVPEKQLSTPPLPRGGRPQKVAAHITGITRRSNSALIPISKDGKTLGQKIESWESSRKGHSFLNHVLFRNGELVIEQEGLYYIYSQTYFRFQEAEDASKMVSKDKVRTKQLVQYIYKYTSYPDPIVLMKSARNSCWSRDAEYGLYSIYQGGLFELKKNDRIFVSVTNEHLMDLDQEASFFGAFLIN
tumor-promoting/tumorigenic proteins (Lrp5, MMP9, Runx2, TGFβ, Snail, IL1β etc.) in EO771 cells (EO771 cells): reduced
NFATc1 and cathepsin K [1]: decreased
cleaved caspase 3 in TRAMP cells (TRAMP cells): increase
tumor-promoting genes (Lrp5, Runx2, MMP9, Snail, TGFβ) in TRAMP cells (TRAMP cells; Western blot): downregulated
